From paper PMC9482650, “Quantitative fragmentomics allow affinity mapping of interactomes” (Nature Communications, 2022)

Experiments:
Experiment in all cases: holdup assay
Set-up in all cases: key: below the threshold = too weak to quantify, mostly under pKd 3.1 to 4
[1] = biological target: MAST1, Q9Y2H9
[2] = biological target: Inadl_8, Q8NI35
[3] = biological target: GRIP2_5, Q9C0E4
[4] = biological target: DLG5_1, Q8TDM6
[5] = biological target: IL16_4, Q14005
[6] = biological target: T1, ARHGAP21, Q5T5U3
T1 sequence (Q5T5U3 45-169, limits assumed, looked up): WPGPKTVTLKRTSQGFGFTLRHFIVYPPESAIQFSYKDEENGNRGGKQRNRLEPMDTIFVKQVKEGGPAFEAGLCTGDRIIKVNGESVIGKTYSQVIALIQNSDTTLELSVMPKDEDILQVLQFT

[7] = biological target: NHERF2_2, Q15599
[8] = biological target: IL16_1, Q14005
[9] = biological target: T2, DLG3_2, Q92796
T2 sequence (Q92796 221-321, limits assumed, looked up): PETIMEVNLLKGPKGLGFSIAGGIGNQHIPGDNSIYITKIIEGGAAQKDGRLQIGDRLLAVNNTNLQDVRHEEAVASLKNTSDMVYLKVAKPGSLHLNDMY

[10] = biological target: T3, RHPN1, Q8TCX5
T3 sequence (Q8TCX5 508-602, limits assumed, looked up): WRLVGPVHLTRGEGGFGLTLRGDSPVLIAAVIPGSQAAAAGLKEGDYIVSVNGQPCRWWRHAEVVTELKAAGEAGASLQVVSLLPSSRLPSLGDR

[11] = biological target: T4, PCLO, Q9Y6V0
T4 sequence (Q9Y6V0 4491-4600, limits assumed, looked up): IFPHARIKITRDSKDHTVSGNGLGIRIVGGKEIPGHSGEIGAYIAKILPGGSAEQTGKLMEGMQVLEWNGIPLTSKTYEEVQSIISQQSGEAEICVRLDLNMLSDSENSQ

[12] = biological target: GORASP1, Q9BQQ3
[13] = biological target: LDB3, O75112
[14] = biological target: MAST2, Q6P0Q8
[15] = biological target: T5, LNX2_2, Q8N448
T5 sequence (Q8N448 334-432, limits assumed, looked up): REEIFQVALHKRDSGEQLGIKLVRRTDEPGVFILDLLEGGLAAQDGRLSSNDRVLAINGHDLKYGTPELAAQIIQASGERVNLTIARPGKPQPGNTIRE

[16] = biological target: T6, SIPA1L2, Q9P2F8
T6 sequence (Q9P2F8 945-1036, limits assumed, looked up): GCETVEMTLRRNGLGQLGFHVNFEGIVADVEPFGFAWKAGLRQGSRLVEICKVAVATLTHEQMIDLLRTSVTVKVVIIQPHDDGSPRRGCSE

[17] = biological target: PICK1, Q9NRD5
[18] = biological target: T7, MPP6, Q9NZW5
T7 sequence (Q9NZW5 125-219, limits assumed, looked up): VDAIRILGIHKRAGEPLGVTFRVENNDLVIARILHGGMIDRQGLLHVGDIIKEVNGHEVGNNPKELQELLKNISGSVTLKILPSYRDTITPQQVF

[19] = biological target: T8, PDZRN3_1, Q9UPQ7
T8 sequence (Q9UPQ7 244-349, limits assumed, looked up): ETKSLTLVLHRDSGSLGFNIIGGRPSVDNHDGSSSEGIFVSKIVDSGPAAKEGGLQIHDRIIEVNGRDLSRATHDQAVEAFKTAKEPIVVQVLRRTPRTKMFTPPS

[20] = biological target: T9, SHANK1, Q9Y566
T9 sequence (Q9Y566 658-767, limits assumed, looked up): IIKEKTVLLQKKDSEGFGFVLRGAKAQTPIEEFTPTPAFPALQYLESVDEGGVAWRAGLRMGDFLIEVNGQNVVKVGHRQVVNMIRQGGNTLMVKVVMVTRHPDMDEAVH

[21] = biological target: Inadl_2, Q8NI35
[22] = biological target: T10, NHERF3_3, Q5T2W1
T10 sequence (Q5T2W1 238-333, limits assumed, looked up): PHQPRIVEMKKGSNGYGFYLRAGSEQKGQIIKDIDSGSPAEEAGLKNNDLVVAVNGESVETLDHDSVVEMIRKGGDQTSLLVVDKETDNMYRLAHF

[23] = biological target: PTPN3, P26045
[24] = biological target: SNX27, Q96L92
[25] = biological target: TJP1_2, Q07157
[26] = biological target: NHERF4_4, Q86UT5
[27] = biological target: T11, ARHGEF11, O15085
T11 sequence (O15085 42-136, limits assumed, looked up): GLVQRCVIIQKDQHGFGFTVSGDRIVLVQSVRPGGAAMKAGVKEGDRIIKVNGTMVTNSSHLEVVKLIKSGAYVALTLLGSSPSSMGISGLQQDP

[28] = plain residues with an end cap or a label only (N-terminal biotin on a linker: ahx)
[29] = plain residues with an end cap or a label only (N-terminal biotin on a linker: ttds)

Sequence of PTPN3, P26045 (P26045 505-587): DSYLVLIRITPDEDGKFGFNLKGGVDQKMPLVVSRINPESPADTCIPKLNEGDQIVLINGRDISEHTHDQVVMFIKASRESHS
Sequence of TJP1_2, Q07157 (Q07157 181-274): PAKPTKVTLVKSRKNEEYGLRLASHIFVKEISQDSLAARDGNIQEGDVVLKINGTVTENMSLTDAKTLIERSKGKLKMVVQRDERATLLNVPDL
Sequence of MAST1, Q9Y2H9 (Q9Y2H9 962-1065): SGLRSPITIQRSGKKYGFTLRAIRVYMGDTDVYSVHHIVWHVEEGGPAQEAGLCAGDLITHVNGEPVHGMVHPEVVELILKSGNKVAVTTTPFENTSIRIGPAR
Sequence of MAST2, Q6P0Q8 (Q6P0Q8 1099-1202): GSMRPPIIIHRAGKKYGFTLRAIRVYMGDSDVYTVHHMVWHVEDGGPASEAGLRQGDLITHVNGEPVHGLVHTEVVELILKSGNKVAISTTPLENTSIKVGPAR
Sequence of Inadl_8, Q8NI35 (Q8NI35 1425-1530): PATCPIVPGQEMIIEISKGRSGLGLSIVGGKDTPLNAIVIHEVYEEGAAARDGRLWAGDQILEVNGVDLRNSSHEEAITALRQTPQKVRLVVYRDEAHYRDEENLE
Sequence of IL16_1, Q14005 (Q14005 210-306): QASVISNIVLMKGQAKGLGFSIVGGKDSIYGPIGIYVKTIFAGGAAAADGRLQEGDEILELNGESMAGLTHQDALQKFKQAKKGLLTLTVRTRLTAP
Sequence of DLG5_1, Q8TDM6 (Q8TDM6 617-713): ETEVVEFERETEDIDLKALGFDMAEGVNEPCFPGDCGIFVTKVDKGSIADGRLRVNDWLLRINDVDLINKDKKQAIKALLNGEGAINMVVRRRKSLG
Sequence of NHERF2_2, Q15599 (Q15599 142-238): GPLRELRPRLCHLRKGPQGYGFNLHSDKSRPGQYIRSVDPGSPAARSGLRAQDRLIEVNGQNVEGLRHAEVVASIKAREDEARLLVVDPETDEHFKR
Sequence of LDB3, O75112 (O75112 1-94): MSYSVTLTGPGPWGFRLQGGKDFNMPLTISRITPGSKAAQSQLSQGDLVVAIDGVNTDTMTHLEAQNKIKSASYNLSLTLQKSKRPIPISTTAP
Sequence of GRIP2_5, Q9C0E4 (Q9C0E4 544-642): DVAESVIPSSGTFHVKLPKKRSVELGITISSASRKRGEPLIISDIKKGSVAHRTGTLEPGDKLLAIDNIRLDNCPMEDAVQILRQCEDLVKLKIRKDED
Sequence of IL16_4, Q14005 (Q14005 1229-1329): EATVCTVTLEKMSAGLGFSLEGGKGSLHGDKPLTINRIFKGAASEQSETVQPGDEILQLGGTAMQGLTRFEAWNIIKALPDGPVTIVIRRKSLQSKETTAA
Sequence of Inadl_2, Q8NI35 (Q8NI35 238-335): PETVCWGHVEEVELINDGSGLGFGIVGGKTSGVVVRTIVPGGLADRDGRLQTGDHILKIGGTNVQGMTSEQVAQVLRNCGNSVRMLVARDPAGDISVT
Sequence of PICK1, Q9NRD5 (Q9NRD5 17-115): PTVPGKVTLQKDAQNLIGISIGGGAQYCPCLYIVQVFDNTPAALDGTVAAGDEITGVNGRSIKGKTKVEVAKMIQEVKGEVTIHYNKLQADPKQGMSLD
Sequence of GORASP1, Q9BQQ3 (Q9BQQ3 1-208): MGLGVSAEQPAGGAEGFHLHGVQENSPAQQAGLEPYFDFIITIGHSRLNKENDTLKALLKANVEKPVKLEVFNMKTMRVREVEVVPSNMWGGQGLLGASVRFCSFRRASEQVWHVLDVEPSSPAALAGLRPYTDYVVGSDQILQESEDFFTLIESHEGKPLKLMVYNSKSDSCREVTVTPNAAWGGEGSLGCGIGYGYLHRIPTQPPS
Sequence of NHERF4_4, Q86UT5 (Q86UT5 464-550): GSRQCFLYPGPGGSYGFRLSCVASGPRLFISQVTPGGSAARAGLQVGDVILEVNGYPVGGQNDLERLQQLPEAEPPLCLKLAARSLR

B1: PSCDBP, O60759 (peptide)
chain: RAVEEEESRF
B1 was tested. Which pKd [1, 28] did it give?
Its pKd is 4.02.

What about the pKd [2, 28] of the same binder?
Its pKd is “below the threshold”.

And the pKd [3, 28]?
Its pKd is “below the threshold”.

And the pKd [4, 28]?
Its pKd is “below the threshold”.

And the pKd [5, 28]?
Its pKd is “below the threshold”.

What about the pKd [6, 28] of the same binder?
The pKd was “below the threshold”.

What about the pKd [7, 28] of the same binder?
The pKd was 5.

And the pKd [8, 28]?
Its pKd is “below the threshold”.

What about the pKd [9, 28] of the same binder?
Its pKd is “below the threshold”.

And the pKd [10, 28]?
Its pKd is 4.44.

What about the pKd [11, 28] of the same binder?
The pKd was “below the threshold”.

And the pKd [12, 28]?
The pKd was “below the threshold”.

And the pKd [13, 28]?
Its pKd is “below the threshold”.

What about the pKd [14, 28] of the same binder?
The pKd was 4.45.

What about the pKd [15, 28] of the same binder?
Its pKd is “below the threshold”.

What about the pKd [16, 28] of the same binder?
The pKd was “below the threshold”.

And the pKd [17, 28]?
The pKd was “below the threshold”.

What about the pKd [18, 28] of the same binder?
Its pKd is “below the threshold”.

What about the pKd [19, 28] of the same binder?
Its pKd is “below the threshold”.

And the pKd [20, 28]?
Its pKd is 4.77.

And the pKd [21, 28]?
Its pKd is “below the threshold”.

And the pKd [22, 28]?
Its pKd is “below the threshold”.

What about the pKd [23, 28] of the same binder?
The pKd was 3.98.

What about the pKd [24, 28] of the same binder?
The pKd was 5.64.

And the pKd [25, 28]?
Its pKd is “below the threshold”.

What about the pKd [26, 28] of the same binder?
Its pKd is “below the threshold”.

And the pKd [27, 28]?
Its pKd is “below the threshold”.

B2: DOCK4, Q8N1I0 (peptide)
chain: RPLPRKVSQL
B2 was tested. Which pKd [1, 29] did it give?
Its pKd is 3.86.

What about the pKd [2, 29] of the same binder?
Its pKd is “below the threshold”.

What about the pKd [3, 29] of the same binder?
Its pKd is “below the threshold”.

What about the pKd [4, 29] of the same binder?
Its pKd is “below the threshold”.

And the pKd [5, 29]?
Its pKd is “below the threshold”.

And the pKd [6, 29]?
The pKd was “below the threshold”.

What about the pKd [7, 29] of the same binder?
The pKd was “below the threshold”.

And the pKd [8, 29]?
Its pKd is “below the threshold”.

What about the pKd [9, 29] of the same binder?
Its pKd is “below the threshold”.

What about the pKd [10, 29] of the same binder?
The pKd was “below the threshold”.

And the pKd [11, 29]?
Its pKd is “below the threshold”.

And the pKd [12, 29]?
The pKd was 3.55.

What about the pKd [13, 29] of the same binder?
Its pKd is “below the threshold”.

And the pKd [14, 29]?
Its pKd is 4.58.

And the pKd [15, 29]?
Its pKd is “below the threshold”.

And the pKd [16, 29]?
Its pKd is “below the threshold”.

And the pKd [17, 29]?
The pKd was “below the threshold”.

What about the pKd [18, 29] of the same binder?
Its pKd is “below the threshold”.

What about the pKd [19, 29] of the same binder?
The pKd was 3.64.

What about the pKd [20, 29] of the same binder?
Its pKd is “below the threshold”.

And the pKd [21, 29]?
The pKd was “below the threshold”.

And the pKd [22, 29]?
Its pKd is “below the threshold”.

And the pKd [23, 29]?
Its pKd is 4.73.

What about the pKd [24, 29] of the same binder?
The pKd was “below the threshold”.

And the pKd [25, 29]?
Its pKd is “below the threshold”.

And the pKd [26, 29]?
The pKd was “below the threshold”.

What about the pKd [27, 29] of the same binder?
The pKd was 3.62.
